Several values for one entry are separate records, joined by “and”; a condition that tells them apart may be missing. Equal values may be shown once.
Legend:
[1] = Induction of cytotoxic cellular response by HIV gp 120 peptide; details: in vivo
[2] = target: Human Alpha 1 Anti-Trypsin Protein (Homo sapiens, UniProt P01009); experiment: Antibody responses to human alpha 1 anti-trypsin protein after immunization; format: in vivo, mice
[3] = Accell (no adjuvant), prime + 1 boost
[4] = Accell (no adjuvant), prime only

Human Alpha 1 Anti-Trypsin Protein, sequence (P01009 25-418): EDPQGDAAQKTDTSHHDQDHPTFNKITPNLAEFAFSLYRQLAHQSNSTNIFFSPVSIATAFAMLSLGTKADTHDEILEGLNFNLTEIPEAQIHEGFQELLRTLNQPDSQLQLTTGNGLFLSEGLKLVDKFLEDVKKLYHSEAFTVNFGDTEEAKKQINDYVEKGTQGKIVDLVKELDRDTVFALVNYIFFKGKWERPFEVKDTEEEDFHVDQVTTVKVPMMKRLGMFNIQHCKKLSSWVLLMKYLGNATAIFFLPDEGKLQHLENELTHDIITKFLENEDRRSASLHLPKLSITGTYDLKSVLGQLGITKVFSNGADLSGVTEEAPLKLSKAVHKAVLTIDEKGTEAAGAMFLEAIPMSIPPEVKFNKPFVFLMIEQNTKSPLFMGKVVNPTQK

| Molecule | regimen required to induce a cytotoxic cellular response [1] | number with detectable antibody/total number tested [2, 3] | reciprocal antibody titers [2, 3] | number with detectable antibody/total number tested [2, 4] | reciprocal antibody titers [2, 4] | number with detectable antibody/total number tested ([2]; injection with Freund's adjuvant, prime + 1 boost) | number with detectable antibody/total number tested ([2]; injection with Freund's adjuvant, prime only) |
| --- | --- | --- | --- | --- | --- | --- | --- |
| CC[C@H](C)[C@H](NC(=O)[C@@H](NC(=O)[C@@H](NC(=O)[C@H](Cc1ccccc1)NC(=O)[C@H](C)NC(=O)[C@H](CCCNC(=N)N)NC(=O)CNC(=O)[C@@H]1CCCN1C(=O)CNC(=O)[C@H](CCCNC(=N)N)NC(=O)[C@H](CCC(N)=O)NC(=O)[C@@H](NC(=O)[C@@H](N)CCCNC(=N)N)[C@@H](C)CC)C(C)C)[C@@H](C)O)C(=O)NCC(=O)N[C@@H](CCCCN)C(=O)O [HIV gp 120] | a single dose, i.e. the prime, is all that is required |  |  |  |  |  |  |
| Human Alpha 1 Anti-Trypsin Protein: Human Alpha 1 Anti-Trypsin Protein used as immunogen |  | 4/4 | 9500 and 6500 and 5500 | 4/4 | 350 and 375 and 210 and 250 | 4/4 | 4/4 |
